The target in experiment [1] is T1, human CTLA-4 expressed on cells (293T cells stably transfected with human CTLA-4); in vitro-activated human … (human, UniProt P16410 36-223).
T1 construct: whole, on cells; also called hCTLA-4
Kind of experiment: flow cytometry on hCTLA-4-transfected 293T cells. On the technique in general: Flow cytometry measures light scatter and fluorescence of single cells or particles in a stream.

For experiment [2], the target named is T2, recombinant human CTLA-4-Fc protein (R&D Systems) (human, UniProt P16410 37-162).
T2 construct: also called rhCTLA-4-Fc; human CTLA-4 protein; not shown: Fc part of the bought fusion protein, not described
Kind of experiment: ELISA, CTLA-4-Fc coated at 1 pmol/well, IgG titrated. For orientation: In an ELISA, binding on a coated surface is turned into a signal by an enzyme label.

The target of experiment [3] is T3, recombinant human CD28-Fc protein (R&D Systems) (human, UniProt P10747 19-152).
T3 construct: also called human CD28 protein; not shown: Fc part of the bought fusion protein, not described
Put plainly: ELISA, CD28-Fc coated at 1 pmol/well.

For experiment [4], the target named is T2, recombinant human CTLA-4-Fc protein …. Put plainly: ELISA, CTLA-4-Fc coated, IgG titrated.
The target of experiment [5] is T4, recombinant mouse CD28-Fc protein (R&D Systems) (mouse, UniProt P31041 20-149).
T4 construct: not shown: Fc part of the bought fusion protein, not described
Put plainly: ELISA, mouse CD28-Fc coated at 0.3 pmol/well.

Experiment [6] has as its target T5, recombinant mouse CTLA-4-Fc protein (R&D Systems) (mouse, UniProt P09793 36-162).
T5 construct: not shown: Fc part of the bought fusion protein, not described
Kind of experiment: ELISA, mouse CTLA-4-Fc coated at 0.3 pmol/well, IgG titrated.

For experiment [7], the target named is T2, recombinant human CTLA-4-Fc protein …. Put plainly: competitive flow cytometry: soluble rhCTLA-4-Fc blocks staining of activated human CD4+ T cells.
Experiment [8] deals with T6, recombinant mouse CTLA-4-Fc protein (Sino Biological Inc.) (mouse, UniProt P09793 36-162).
T6 construct: also called murine CTLA-4; not shown: Fc part of the bought fusion protein, not described
Put plainly: ligand blocking ELISA on coated mouse CTLA-4-Fc.

Numbering of substitutions follows the chain as printed.

B1: 2-F09 (antibody, V domains shown)
VH: EVQLLESGGGLVQPGGSLRLSCAASGFTFKAYSMSWIRQAPGKGLEWVSGISNTGGSTDFADSVKGRFTISRDNSKNTLYLQMNSLRAEDTAMYYCARLGYSGYDDRGMDVWGQGTLVTVSS
VL: QSVLTQPPSASGTPGQRVTISCSGSSSNIGSNYVYWYQQLPGTAPKLLIYGNSNRPSGVPDRFSGSKSGTSASLAISGLRSEDEADYYCQSYDSSLSGPVVFGGGTKLTVLG
Regarding B1, the binding result in experiment [1] and in experiment [2] was “binds” in each case.

B2: 2-C06 (antibody, V domains shown)
VH: EVQLLESGGGLVQPGGSLRLSCAASGFTFSSYAMSWVRQAPGKGLEWVSGISGSGGYIHYADSVKGRFTISRDNSKNTLYLQMNSLRAEDTAVYYCATYSSGLHDAFDIWGQGTLVTVSS
VL: QSVLTQPPSASGTPGQRVTISCTGSSSNIGAGYDVHWYQQLPGTAPKLLIYDNNKRPSGVPDRFSGSKSGTSASLAISGLRSEDEADYYCAAWDDSLNGWVFGGGTKLTVLG
notes: also called 2-006
As for B2, the binding result is given as “no binding (tested: titrated 66 nM to 0.3 pM)” in experiment [3], “binds” in experiment [4] and “binds” in experiment [1].

B3: 4-E03 (antibody, human IgG1, lambda, V domains shown)
VH: EVQLLESGGGLVQPGGSLRLSCAASGFTFSDYYMSWVRQAPGKGLEWVSGISWSSRDKGYADSVKGRFTISRDNSKNTLYLQMNSLRAEDTAVYYCTTDLARYWGQGTLVTVSS
VL: B2 VL with D52G, N54D, K55N, A92V, W100V
notes: also called 4-E03 mAb; 4-E03 monoclonal antibody
For the molecule B3, the binding result was “no binding (tested: titrated 66 nM to 0.3 pM)” in experiment [3], “binds” in experiment [4] and “binds” in experiment [1].

B4: 5-B07 (antibody, V domains shown)
VH: EVQLLESGGGLVQPGGSLRLSCAASGFTFSSYSMNWVRQAPGKGLEWVSAISGSGGSTYYADSVKGRFTISRDNSKNTLYLQMNSLRAEDTAVYYCARDRVEMNQWLADWGQGTLVTVSS
VL: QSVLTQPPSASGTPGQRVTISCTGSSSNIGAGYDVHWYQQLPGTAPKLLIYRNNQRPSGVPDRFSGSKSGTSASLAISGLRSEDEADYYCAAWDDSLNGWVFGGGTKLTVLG
notes: also called 5-B07 (human IgG format)
Take B4: the binding result is reported as “no binding (tested: titrated 66 nM to 0.3 pM)” in experiment [3]; “no binding (tested: titrated 66 nM to 0.3 pM)” in experiment [5]; “binds” in experiment [1]; “binds” in experiment [6]; “binds” in experiment [7].

B5: m5-B07 (antibody clone 5-B07 in mIgG2a format) (antibody, V domains shown)
VH: B4 VH
VL: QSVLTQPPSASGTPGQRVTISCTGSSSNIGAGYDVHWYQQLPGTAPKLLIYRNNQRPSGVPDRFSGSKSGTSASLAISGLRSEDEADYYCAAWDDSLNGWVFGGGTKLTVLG
notes: also called 5-B07 in mouse IgG2a format; m5-B07 mAb
For the molecule B5, the binding result in experiment [8] is listed as “binds”.

(Values after patent publication US20220041723A1 (BIOINVENT INTERNATIONAL, published 2022).)
